One molecule from patent US20080318857A1 (MEDICAL COLLEGE OF GEORGIA RESEARCH INSTITUTE, published 2008) can be followed below.

This test deals with T1, VEGFR-2 (KDR), endogenous in A375 human malignant melanoma cells (human, UniProt P35968 20-1356, limits assumed).
T1 construct: Endogenous protein in cell lysate; also called Flk
Briefly: co-immunoprecipitation: anti-FLT IP of transfected hypoxic A375 cell fraction, Western blot with anti-VEGFR-2. The protocol: HMMCs transfected with pCMV.Flt23K or pCMV.Flt24K were subjected to hypoxia 48 hours after transfection. Two days later, the cellular fraction was immunoprecipitated with anti-FLT antibody (epitope specific for domains 2 and 3; Santa Cruz, Calif.) and subsequently underwent Western blotting with an anti-VEGF or an anti-VEGFR-2 antibody. A 50 kDa band (consistent with a VEGF homodimer interacting with the intraceptor) was detected in cells transfected with pCMV.Flt23K or pCMV.Flt24K (FIG. 5A). A 30 kDa band was present in cells transfected with pCMV.Flt24K but not pCMV.Flt23K (FIG. 5B).

T1 sequence (P35968 20-1356 limits assumed): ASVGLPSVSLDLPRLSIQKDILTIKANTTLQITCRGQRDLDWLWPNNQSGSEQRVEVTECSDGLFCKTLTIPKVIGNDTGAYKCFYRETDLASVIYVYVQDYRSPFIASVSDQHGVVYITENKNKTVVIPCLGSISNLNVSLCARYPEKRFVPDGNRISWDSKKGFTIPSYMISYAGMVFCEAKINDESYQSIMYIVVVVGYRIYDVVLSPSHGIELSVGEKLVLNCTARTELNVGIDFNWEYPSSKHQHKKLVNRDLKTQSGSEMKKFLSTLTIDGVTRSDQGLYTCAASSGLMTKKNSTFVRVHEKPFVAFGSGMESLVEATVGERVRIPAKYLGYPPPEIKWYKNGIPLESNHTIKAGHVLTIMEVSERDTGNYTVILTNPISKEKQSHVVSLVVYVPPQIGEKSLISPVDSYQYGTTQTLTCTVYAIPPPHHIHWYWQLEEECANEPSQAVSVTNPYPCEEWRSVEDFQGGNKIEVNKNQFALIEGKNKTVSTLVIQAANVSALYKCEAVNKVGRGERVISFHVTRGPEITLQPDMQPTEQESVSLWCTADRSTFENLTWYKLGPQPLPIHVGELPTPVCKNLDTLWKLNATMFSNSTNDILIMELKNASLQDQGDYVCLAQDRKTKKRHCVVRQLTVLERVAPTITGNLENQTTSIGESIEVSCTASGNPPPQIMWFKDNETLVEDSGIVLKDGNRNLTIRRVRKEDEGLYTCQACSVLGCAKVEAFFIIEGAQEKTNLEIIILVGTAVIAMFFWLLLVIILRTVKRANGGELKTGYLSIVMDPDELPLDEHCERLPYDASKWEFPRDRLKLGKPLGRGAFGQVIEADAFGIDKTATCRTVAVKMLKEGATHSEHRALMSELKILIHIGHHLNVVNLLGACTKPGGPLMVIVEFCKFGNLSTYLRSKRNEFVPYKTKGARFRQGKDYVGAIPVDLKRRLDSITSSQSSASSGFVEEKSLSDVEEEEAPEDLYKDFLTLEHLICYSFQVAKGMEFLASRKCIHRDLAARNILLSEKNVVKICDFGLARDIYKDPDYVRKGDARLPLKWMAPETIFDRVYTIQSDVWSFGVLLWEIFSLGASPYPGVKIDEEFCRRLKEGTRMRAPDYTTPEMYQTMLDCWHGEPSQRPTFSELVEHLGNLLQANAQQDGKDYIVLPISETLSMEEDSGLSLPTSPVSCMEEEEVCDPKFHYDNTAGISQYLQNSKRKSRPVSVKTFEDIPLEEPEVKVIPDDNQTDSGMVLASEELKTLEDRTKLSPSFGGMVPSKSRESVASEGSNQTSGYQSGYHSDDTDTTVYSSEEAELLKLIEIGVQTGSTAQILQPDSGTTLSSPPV

B1: Flt23K intraceptor (Flt23-KDEL; domains 2 and 3 of VEGFR-1 (Flt) fused at the C-terminus to the ER retention signal KDEL) (receptor)
chain: DTGRPFVEMYSEIPEIIHMTEGRELVIPCRVTSPNITVTLKKFPLDTLIPDGKRIIWDSRKGFIISNATYKEIGLLTCEATVNGHLYKTNYLTHRQTNTIIDVQISTPRPVKLLRGHTLVLNCTATTPLNTRVQMTWSYPDEKNKRASVRRRIDQSNSHANIFYSVLTIDKMQNKDKGLYTCRVRSGPSFKSVNTSVHIYDKAFITVKHRKKDEL
notes: Expressed inside transfected cells from pCMV.Flt23K, not purified; also called pCMV.Flt23K (expression plasmid); pCMV.Flt23
Regarding B1, the binding result is given as “no binding”.
